From patent US9476056B2, “Recombinant vector for producing and secreting peptide or protein of interest by propionibacteria and applications thereof” (INSTITUT NATIONAL DE LA SANTE ET DE LA RECHERCHE MEDICALE …, priority 2010, dated 2016)

Test system: HT29 human colon cancer cells
Assay: Cytotoxicity (viability) test on HT29 cells, methylene blue staining
Type: cell-based
Settings: TRAIL alone, sublethal doses 25, 50 and 100 ng/ml, 24 hours
Description: FIG. 1: Graphs illustrating the synergy observed in vitro between TRAIL and P. freudenreichii metabolites. HT29 colon cancer cells were treated with sublethal doses of TRAIL (25 ng/ml, 50 ng/ml and 100 ng/ml). Various doses of SCFA (propionate/acetate SCFA, FIG. 1A) or of P. freudenreichii supernatant (FIG. 1B) were used in co-treatment. Viability of the HT29 cells was determined after 24 hours of treatment. […] More precisely, the viability illustrated in FIG. 1 was determined using the following cytotoxicity test. HT29 human colon cancer cells (ATCC, Biovalley) were cultured in 96-well plates (30,000 cells/well) for 24 hours. […] At the end of treatment (24 hours), the medium was discarded and the adherent cells were washed three times with 1× PBS (100 μl/well) and fixed in 99% ethanol (100 μl/well) for 30 minutes. After discarding the ethanol, the fixed cells were air dried and then stained for 30 minutes with methylene blue (diluted in 1× borate buffer). After three washings in water and drying (roughly 30 minutes), 100 μl of hydrochloric acid (0.1 N) was added to the wells. The plates were then analyzed by spectrophotometer at a wavelength of 620 nm (iEMS Reader MF; Lab-systems, Helsinki, Finland).

B1: TRAIL: cytokine TNF-related apoptosis-inducing ligand; SuperKillerTRAIL™ (Alexis Biochemicals) used in the HT29 test (protein)
chain: TSEETISTVQEKQQNISPLVRERGPQRVAAHITGTRGRSNTLSSPNSKNEKALGRKINSWESSRSGHSFLSNLHLRNGELVIHEKGFYYIYSQTYFRFQEEIKENTKNDKQMVQYIYKYTSYPDPILLMKSARNSCWSKDAEYGLYSIYQGGIFELKENDRIFVSVTNEHLIDMDHEASFFGAFLVG
In the case of B1, the “cell death (viability of HT29 cells)” value is reported as “do not significantly induce cell death”.
